Literature values in paper PMC5998221.

Experiments:
Asp101 = Asp101 (UniProt position 119, KKIVSDGNGMN)
Asp119 = Asp119 (UniProt position 137, RCKGTDVQAWI)
Asp18 = Asp18 (UniProt position 36, KRHGLDNYRGY)
Asp48 = Asp48 (UniProt position 66, TNRNTDGSTDY)
Asp52 = Asp52 (UniProt position 70, TDGSTDYGILQ)
Asp66 = Asp66 (UniProt position 84, RWWCNDGRTPG)
Asp87 = Asp87 (UniProt position 105, ALLSSDITASV)
Glu35 = Glu35 (UniProt position 53, CAAKFESNFNT)
Glu7 = Glu7 (UniProt position 25, VFGRCELAAAM)

Hen egg white lysozyme (HEWL, lysozyme C) (Gallus gallus)
pKa (Asp101): 4.5 | pKa (Asp119): 3.5 | pKa (Asp18): 2.8 | pKa (Asp48): 1.4 | pKa (Asp52): 3.6 | pKa (Asp66): 1.2 | pKa (Asp87): 2.2 | pKa (Glu35): 6.1 | pKa (Glu7): 2.6
